Key:
HLA-C*15:02 = experiment: IEDB peptide-MHC binding, purified MHC/direct/fluorescence; filed as Kd, often an IC50 or EC50 that approximates it; ≥ and ≤ were set here for values at or beyond the usual limits of such assays
HLA-B*15:17 = experiment: IEDB peptide-MHC binding, purified MHC/competitive/fluorescence; filed as Kd, often an IC50 or EC50 that approximates it; ≥ and ≤ were set here for values at or beyond the usual limits of such assays
HLA-B*58:01 = experiment: IEDB peptide-MHC binding, purified MHC/direct/fluorescence; filed as Kd, often an IC50 or EC50 that approximates it; ≥ and ≤ were set here for values at or beyond the usual limits of such assays
HLA-B*18:01 [1] = experiment: as above
HLA-A*03:01 = experiment: as above
HLA-A*69:01 [2] = experiment: as above
HLA-B*40:01 = experiment: as above
HLA-B*48:01 = experiment: as above
HLA-A*11:01 = experiment: as above
HLA-A*31:01 = experiment: as above
HLA-B*57:01 [3] = experiment: as above
HLA-A*02:01 [4] = experiment: as above
HLA-B*46:01 [5] = experiment: as above
HLA-B*27:05 = experiment: as above
HLA-A*01:01 = experiment: as above
HLA-B*15:42 = experiment: IEDB peptide-MHC binding, purified MHC/competitive/fluorescence; filed as Kd, often an IC50 or EC50 that approximates it; ≥ and ≤ were set here for values at or beyond the usual limits of such assays
HLA-B*83:01 = experiment: as above
HLA-B*45:06 = experiment: as above
HLA-A*29:02 = experiment: IEDB peptide-MHC binding, purified MHC/direct/fluorescence; filed as Kd, often an IC50 or EC50 that approximates it; ≥ and ≤ were set here for values at or beyond the usual limits of such assays; conditions: source organism: Yellow fever virus
HLA-B*44:02 = experiment: as above; conditions: source organism: Yellow fever virus
HLA-B*15:01 [6] = experiment: as above; conditions: source organism: Yellow fever virus
HLA-B*18:01 [7] = experiment: IEDB peptide-MHC binding, purified MHC/competitive/fluorescence; filed as Kd, often an IC50 or EC50 that approximates it; ≥ and ≤ were set here for values at or beyond the usual limits of such assays; conditions: source organism: Homo sapiens
HLA-A*69:01 [8] = experiment: as above; conditions: source organism: Homo sapiens
HLA-B*51:01 = experiment: as above; conditions: source organism: Homo sapiens
HLA-B*57:01 [9] = experiment: as above; conditions: source organism: Homo sapiens
HLA-A*02:01 [10] = experiment: as above; conditions: source organism: Homo sapiens
HLA-B*39:01 [11] = experiment: as above; conditions: source organism: Homo sapiens
HLA-B*27:03 = experiment: as above; conditions: source organism: Homo sapiens
HLA-B*46:01 [12] = experiment: as above; conditions: source organism: Homo sapiens
HLA-A*26:01 = experiment: as above; conditions: source organism: Homo sapiens
HLA-B*15:01 [13] = experiment: as above; conditions: source organism: Homo sapiens
HLA-B*39:01 [14] = experiment: IEDB peptide-MHC binding, purified MHC/direct/fluorescence; filed as Kd, often an IC50 or EC50 that approximates it; ≥ and ≤ were set here for values at or beyond the usual limits of such assays; conditions: source organism: Camelpox virus M-96
[15] = source organism: Camelpox virus M-96
[16] = source organism: West Nile virus
[17] = source organism: Mycobacterium tuberculosis C
[18] = source organism: Yellow fever virus
[19] = source organism: human gammaherpesvirus 4

Measured: Kd

KSLQTTRRF
0.266 µM: HLA-C*15:02; source organism: Histophilus somni 129PT

NSNINVINY
5.44 µM: HLA-A*01:01; [15]
≥ 20 µM: HLA-B*15:17; source organism: Vaccinia virus WR | HLA-B*58:01; [15] | HLA-B*18:01 [1]; [15] | HLA-A*03:01; [15] | HLA-A*69:01 [2]; [15] | HLA-B*40:01; [15] | HLA-B*48:01; [15] | HLA-A*11:01; [15] | HLA-A*31:01; [15] | HLA-B*57:01 [3]; [15] | HLA-A*02:01 [4]; [15] | HLA-B*46:01 [5]; [15] | HLA-B*27:05; [15]

RLARAIIEL
3.79 µM: HLA-A*69:01 [2]; [16]
2.42 µM: HLA-C*15:02; [16]

RPMLARLTV
≥ 5 µM: HLA-B*15:42; [17] | HLA-B*45:06; [17]
0.185 µM: HLA-B*83:01; [17]

SCRVKLSAL
≥ 20 µM: HLA-B*58:01; [18] | HLA-A*29:02 | HLA-B*18:01 [1]; [18] | HLA-A*03:01; [18] | HLA-A*69:01 [2]; [18] | HLA-B*40:01; [18] | HLA-B*48:01; [18] | HLA-A*11:01; [18] | HLA-A*31:01; [18] | HLA-B*57:01 [3]; [18] | HLA-A*02:01 [4]; [18] | HLA-B*44:02 | HLA-B*46:01 [5]; [18] | HLA-B*27:05; [18] | HLA-B*15:01 [6] | HLA-A*01:01; [18]

TEMYIMYAM
≥ 5 µM: HLA-B*15:42; [19] | HLA-B*83:01; [19] | HLA-B*45:06; [19]

VTENKKIQY
≥ 20 µM: HLA-B*18:01 [7] | HLA-A*69:01 [8] | HLA-B*51:01 | HLA-B*15:17; source organism: Homo sapiens | HLA-B*57:01 [9] | HLA-A*02:01 [10] | HLA-B*39:01 [11] | HLA-B*27:03 | HLA-B*46:01 [12] | HLA-A*26:01 | HLA-B*15:01 [13]

YHDDDNTTT
0.343 µM: HLA-B*39:01 [14]
